From patent US7087711 (Harvard, dated 2006)

T1: TATA-binding protein (TBP) (yeast, UniProt P13393 1-240, limits assumed)
T1 construct: Soluble analyte, injected over Gal4 derivatives captured on DNA in SPR
T1 sequence (looked up): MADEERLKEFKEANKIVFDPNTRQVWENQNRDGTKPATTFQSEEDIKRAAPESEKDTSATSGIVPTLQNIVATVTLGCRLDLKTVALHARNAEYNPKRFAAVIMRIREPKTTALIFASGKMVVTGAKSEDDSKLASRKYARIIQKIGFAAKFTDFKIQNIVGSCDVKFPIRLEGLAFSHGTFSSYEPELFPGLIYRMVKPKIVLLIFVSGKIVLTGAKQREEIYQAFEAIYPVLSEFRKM


Biological target: T1, TATA-binding protein (TBP)
Test: SPR, Gal4 derivative captured on a DNA-bearing chip, TBP injected
Method: PROTEIN—PROTEIN INTERACTIONS: The activators (GAL4 derivatives and other activating regions fused to GAL4 DNA binding domain) were first passed over the DNA-bearing chip. Typically 10 µl of 0.01 mg/ml protein solution (~1 µM) in HBS (10 mM HEPES pH 7.4, 150 mM NaCl, 0.0005% Surfectant P20, Pharmacia) were injected at a flow rate of 5 µl/min, and the DNA was saturated by the activators. This is indicated by the first increase of the RU value on the sensorgrams. Various proteins to be tested (e.g., TBP) were then injected (typically 20 µl of […] solution in HBS at a flow rate of 5 µl/min), and their binding to the activating regions was indicated by the second increase of the RU value on the sensogram. The DNA bearing chip was then regenerated by washing with 10 µl of 0.1% SDS, a procedure that washes both proteins off the DNA, but leaves the DNA bearing chip intact. The baseline of the sensorgrams always comes back to the original level after each regeneration. A different activator was then injected to the same surface at the same concentration, and the DNA was once again saturated with the activators. As a consequence the same number of the molecules of the activators was immobilized to the chip each time. The protein to be tested (e.g., TBP) was once again injected and its binding to this activator was compared to that of the previous one. […]

| Binder | Ka [M⁻¹] |
| --- | --- |
| GAL4(1-100)+(840-857) (other, yeast, UniProt P04386 1-100, looked up, range 1-100;range 840-857) MKLLSSIEQACDICRLKKLKCSKEKPKCAKCLKNNWECRYSPKTKRSPLTRAHLTEVESRLERLEQLFLLIFPREDLDMILKMDSLQDIKALLTGLFVQDWTDQTAYNAFGITTGMFN | 2e+06 |
| GAL4(1-100)+(840-881) fusion (other, yeast, UniProt P04386 1-100, looked up, range 1-100;range 840-881; also called G4RII' (as Gal4(840-881)) fused to Gal4(1-100); RJR182) MKLLSSIEQACDICRLKKLKCSKEKPKCAKCLKNNWECRYSPKTKRSPLTRAHLTEVESRLERLEQLFLLIFPREDLDMILKMDSLQDIKALLTGLFVQDWTDQTAYNAFGITTGMFNTTTMDDVYNYLFDDEDTPPNPKKE | 6e+06 |
